We go through two substances from publication PMC3686713.

The data set relates to OmpR (phosphorylated with acetyl phosphate) (Yersinia pseudotuberculosis IP31758). Nature of the data set: EMSA. (Mobility shift assays separate free from complexed probe on a gel.)

T6SS-4 promoter returned a binding of 40 nM.
To ompF promoter belongs 20 nM.
